Measured values taken from patent US20250277790A1 (Johns Hopkins, published 2025).

Biological target: human EGFR tagged with the fluorescent protein mTurquoise at the C-terminus (wild-type), in plasma … (human, UniProt P00533 25-1210)
Assay: cell-based or functional assay

EC50 of Y1068 phosphorylation per EGFR molecule: 5.5 nM
EC50 of Y1173 phosphorylation per EGFR molecule: 6.8 nM
B1: EGF ligand from mouse labeled with rhodamine at its N-terminus (rho-mEGF, Thermofisher, E3481) (ligand, UniProt P01132 977-1029, looked up)
chain: NSYPGCPSSYDGYCLNGGVCMHIESLDSYTCNCVIGYSGDRCQTRDLRWWELR
modifications: not fully specified; rhodamine (tetramethylrhodamine) at the N-terminus
